In the data set the target is T1, PRDM14 DNA binding domain (C-terminal 179 aa) (Homo sapiens, UniProt Q9GZV8 SEQ:393-571).
T1 sequence: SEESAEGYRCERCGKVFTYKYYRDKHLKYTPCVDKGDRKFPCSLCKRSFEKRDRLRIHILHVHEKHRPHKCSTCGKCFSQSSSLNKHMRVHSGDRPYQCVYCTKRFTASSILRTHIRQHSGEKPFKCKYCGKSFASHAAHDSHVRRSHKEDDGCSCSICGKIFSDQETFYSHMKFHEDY
As to the kind of experiment: EMSA; 100 ng protein, 1 ng probe, poly(dI-dC), 10 mM ZnCl2, 60 mM KCl, pH 7.9, room temperature. The following applies: tags: His tag, pET42b, E. coli BL21; label: 5' biotin on sense strand. The method, then:
Recombinant PRDM14 DNA binding domain (His tagged) was used in the gel shift assays. Briefly, a cDNA encoding 179 amino acids of the C terminus of PRDM14 was cloned into the pET42b (Novagen) vector using cloning sites NdeI and XhoI. The fusion construct was transformed into BL21 competent cells (Strategene) according to the supplier's instructions. Purified proteins were dialyzed against a dialysis buffer (10 mM Tris-HCl, pH 7.4, 100 mM NaCl, 10 mM ZnCl₂ and 10% glycerol) at 4° C. for 6 hr. Oligonucleotides (Proligo) labeled with biotin at the 5′ end of the sense strands were annealed with the antisense strands in the annealing buffer (10 mM Tris-HCl, pH8.0, 50 mM NaCl, 1 mM EDTA) and purified with agarose gel DNA extraction kit (Qiagen). DNA concentrations were determined by the NanoDrop ND-1000 spectrophotometer. The gel shift assays were performed using a LightShift Chemiluminescent EMSA kit (Pierce Biotechnologies). 100 ng of protein was added to a 5 μl reaction mixture (final) containing 1 μg of poly(dI-dC) (Amersham), 1 ng of biotin-labeled oligonucleotide in the binding buffer (12 mM HEPES, pH7.9, 10% glycerol, 60 mM KCl, 0.25 mM EDTA, 1 mM DTT, 10 mM ZnCl₂). Binding reaction mixtures were incubated for 20 min at room temperature. […] Gels were transferred to Biodyne B nylon membranes (Pierce Biotechnologies) using western blot techniques and detected using chemiluminescence.

The results in this text go back to patent US20130078720, “METHOD FOR INDUCING PLURIPOTENCY IN HUMAN SOMATIC CELLS WITH PRDM14 OR NFRKB” (Agency for Science, Technology and Research, published 2013).

B1: CR2 probe (dsDNA)
DNA 1: CAGCTCTAACCCTAAACAAGTGCTCAACCCTTGAATGGGCCTGGATGGCT
DNA 2: AGCCATCCAGGCCCATTCAAGGGTTGAGCACTTGTTTAGGGTTAGAGCTG
B1: the binding result is listed as “binds”.
